In the Human Domainome abundance scans (Beltran et al. 2025):
± gives the uncertainty stated by the source.

B1: Lysine-specific demethylase 5C, residues 319 to 373; numbered along this chain, P41229 (parent)
chain: AQFIESYVCRMCSRGDEDDKLLLCDGCDDNYHIFCLLPPLPEIPKGVWRCPKCVM

Variants of: B1
Experiment: abundance fitness (aPCA) (normalised: wild type 0, dead -1); higher = more abundant; growth selection in yeast, the domain comes from the species named
Conditions: Homo sapiens

| Variant | abundance fitness |
| --- | --- |
| L40F | -0.678 ± 0.46 |
| L36E | -0.551 ± 0.21 |
| L36C | 0.232 ± 0.13 |
| L36R | -0.732 ± 0.14 |
| L36N | -0.576 ± 0.25 |
| L36Q | -0.555 ± 0.25 |
| L36G | -0.688 ± 0.17 |
| L36P | -0.613 ± 0.2 |
| L36T | -0.16 ± 0.15 |
| L36I | -0.134 ± 0.18 |
| L36H | 0.006 ± 0.26 |
| L36M | -0.275 ± 0.17 |
| L36D | -0.898 ± 0.32 |
| L36W | -0.237 ± 0.2 |
| L36V | -0.118 ± 0.1 |
| L36F | -0.26 ± 0.17 |
| L36S | -0.157 ± 0.091 |
| D28T | -0.494 ± 0.26 |
| D28C | -0.359 ± 0.32 |
| D28A | 0.092 ± 0.16 |
| D28V | -0.527 ± 0.17 |
| D28L | -0.294 ± 0.18 |
| D28N | 0.046 ± 0.19 |
| D28W | -0.244 ± 0.21 |

| Variant | abundance fitness |
| --- | --- |
| D28R | 0.225 ± 0.13 |
| D28E | -0.102 ± 0.32 |
| D28P | 0.259 ± 0.21 |
| D28M | -0.411 ± 0.32 |
| D28K | -0.516 ± 0.41 |
| D28S | 0.148 ± 0.14 |
| D28I | 0.327 ± 0.39 |
| C24Y | -0.812 ± 0.27 |
| G46L | -0.191 ± 0.11 |
| G46R | -0.083 ± 0.15 |
| G46Y | -0.366 ± 0.18 |
| G46S | -0.204 ± 0.13 |
| G46P | -0.42 ± 0.31 |
| G46M | -0.235 ± 0.18 |
| G46H | 0.132 ± 0.23 |
| G46C | -0.578 ± 0.21 |
| G46I | -0.538 ± 0.21 |
| G46N | -0.405 ± 0.2 |
| G46D | 0.043 ± 0.21 |
| G46V | -0.105 ± 0.14 |
| G46W | -0.464 ± 0.24 |
| G46A | -0.059 ± 0.2 |
| G46K | -0.383 ± 0.21 |
| G46Q | -0.093 ± 0.29 |

| Variant | abundance fitness |
| --- | --- |
| G46E | 0.364 ± 0.26 |
| C27I | -0.923 ± 0.41 |
| C27M | -0.507 ± 0.19 |
| C27T | -0.694 ± 0.18 |
| C27G | -0.825 ± 0.13 |
| C27V | -0.752 ± 0.15 |
| C27D | -0.646 ± 0.29 |
| C27Q | -0.522 ± 0.2 |
| C27H | -0.905 ± 0.29 |
| C27S | -0.823 ± 0.14 |
| C27A | -0.921 ± 0.33 |
| C27N | -0.806 ± 0.22 |
| C27L | -0.842 ± 0.16 |
| C27W | -1.06 ± 0.27 |
| C27Y | -0.779 ± 0.21 |
| C27R | -0.759 ± 0.11 |
| I33L | -0.496 ± 0.5 |
| I33R | -0.381 ± 0.49 |
| I33K | -0.423 ± 0.43 |
| I43H | -0.139 ± 0.17 |
| I43R | -0.022 ± 0.092 |
| I43E | -0.057 ± 0.32 |
| I43Y | -0.333 ± 0.16 |
| I43K | -0.101 ± 0.14 |

| Variant | abundance fitness |
| --- | --- |
| I43T | -0.467 ± 0.17 |
| I43W | -0.202 ± 0.14 |
| I43V | -0.137 ± 0.15 |
| I43N | -0.222 ± 0.25 |
| I43M | 0.156 ± 0.14 |
| I43A | -0.281 ± 0.18 |
| I43L | 0.101 ± 0.1 |
| I43D | -0.462 ± 0.36 |
| I43G | -0.302 ± 0.12 |
| I43P | -0.307 ± 0.17 |
| I43C | -0.314 ± 0.15 |
| I43F | -0.21 ± 0.23 |
| I43S | -0.082 ± 0.11 |
| I43Q | 0.076 ± 0.14 |
| K45P | -0.032 ± 0.14 |
| K45N | -0.022 ± 0.15 |
| K45Y | -0.553 ± 0.27 |
| K45E | -0.138 ± 0.16 |
| K45I | -0.25 ± 0.23 |
| K45C | -0.156 ± 0.14 |
| K45R | -0.067 ± 0.12 |
| K45A | -0.176 ± 0.15 |
| K45L | -0.175 ± 0.12 |
| K45D | 0.237 ± 0.2 |

| Variant | abundance fitness |
| --- | --- |
| K45S | -0.266 ± 0.12 |
| K45Q | -0.277 ± 0.16 |
| K45W | -0.446 ± 0.2 |
| K45T | -0.003 ± 0.17 |
| K45H | -0.048 ± 0.17 |
| K45F | -0.491 ± 0.21 |
| K45V | -0.179 ± 0.15 |
| K45M | -0.469 ± 0.28 |
| E42S | -0.273 ± 0.094 |
| E42R | -0.072 ± 0.091 |
| E42F | -0.231 ± 0.17 |
| E42D | 0.043 ± 0.24 |
| E42W | -0.333 ± 0.14 |
| E42C | -0.245 ± 0.15 |
| E42A | -0.05 ± 0.15 |
| E42Y | -0.125 ± 0.16 |
| E42I | 0.009 ± 0.27 |
| E42P | -0.611 ± 0.17 |
| E42V | -0.157 ± 0.14 |
| E42T | 0.068 ± 0.11 |
| E42M | -0.37 ± 0.19 |
| E42G | -0.157 ± 0.15 |
| E42H | -0.44 ± 0.19 |
| E42L | -0.431 ± 0.11 |

| Variant | abundance fitness |
| --- | --- |
| E42N | -0.034 ± 0.17 |
| E42Q | 0.033 ± 0.27 |
| E42K | -0.506 ± 0.17 |
| D25Y | -0.44 ± 0.12 |
| D25Q | -0.218 ± 0.16 |
| D25V | -0.009 ± 0.094 |
| D25K | -0.199 ± 0.17 |
| D25E | -0.246 ± 0.16 |
| D25T | -0.016 ± 0.1 |
| D25M | -0.419 ± 0.14 |
| D25R | -0.058 ± 0.091 |
| D25G | -0.081 ± 0.12 |
| D25F | -0.394 ± 0.12 |
| D25N | -0.293 ± 0.1 |
| D25C | -0.274 ± 0.12 |
| D25W | -0.383 ± 0.18 |
| D25A | 0.158 ± 0.091 |
| D25P | -0.355 ± 0.1 |
| D25S | -0.062 ± 0.079 |
| D25I | -0.224 ± 0.1 |
| D25L | -0.381 ± 0.083 |
| G26V | -0.217 ± 0.12 |
| G26F | -0.047 ± 0.16 |
| G26N | -0.105 ± 0.2 |

| Variant | abundance fitness |
| --- | --- |
| G26M | -0.178 ± 0.17 |
| G26I | -0.21 ± 0.18 |
| G26L | -0.071 ± 0.1 |
| G26S | -0.159 ± 0.11 |
| G26W | -0.375 ± 0.2 |
| G26Y | -0.341 ± 0.22 |
| G26P | -0.799 ± 0.28 |
| G26Q | -0.129 ± 0.17 |
| G26D | -0.034 ± 0.16 |
| G26A | 0.161 ± 0.13 |
| G26T | 0.004 ± 0.16 |
| G26H | 0.092 ± 0.17 |
| G26C | 0.017 ± 0.25 |
| G26K | 0.133 ± 0.14 |
| D29Y | 0.036 ± 0.26 |
| D29A | 0.06 ± 0.43 |
| D29L | -0.101 ± 0.19 |
| D29F | -0.128 ± 0.34 |
| D29M | -0.237 ± 0.44 |
| D29N | 0.274 ± 0.24 |
| D29V | -0.228 ± 0.19 |
| D29R | 0.004 ± 0.17 |
| D29E | 0.017 ± 0.32 |
